Read-outs that look alike come from different tables or passages of the source.
Columns and labels:
[1] = Stability of the same analytes in serum samples, with and without 5% DMSO (Table 3); format: physicochemical
Text: Table 3 is a test corresponding to the test of Table 2, but where the ten samples to be tested were serum samples rather than plasma samples.

[2] = room temperature; for effect of adding DMSO on the activity: EDTA-plasma samples, day 0 and day 3
Method: The effect of adding DMSO was tested on pepsinogen I, pepsinogen II, Helicobacter pylori antibodies and gastrin-17. The results are indicated at day 0 and day 3.

[3] = Storage stability of analytes in serum sample without stabilizer (background statement); format: physicochemical; details: room temperature
Text: In connection with said determinations and sample handling the poor stability of gastrin-17 has proven to be a problem, due to the fact that it decomposes rapidly in the sample. […] This is in contrast to pepsinogen I and II, which retain their activity at room temperature for many days, and Helicobacter pylori antibodies, which survive for at least three days under refrigerator conditions.

[4] = Stability of U-INTP in samples after three days at room temperature, without and with stabilizer (Table 4); format: physicochemical; parameters: U-INTP test result, Immed.: unit not given beside the values; details: for U-INTP test result, 3 days + stabilizer / U-INTP, 3 days + stabilizer, in % of immed.-sample: with stabilizer
Text: Two parallel tests were done for each sample.

[5] = EDTA-plasma sample PL466s, 0% DMSO, day 0
[6] = EDTA-plasma sample PL466s, 0% DMSO, day 3
[7] = EDTA-plasma sample PL466s, 5% DMSO, day 0
[8] = EDTA-plasma sample PL466s, 5% DMSO, day 3
[9] = EDTA-plasma sample PL467s, 0% DMSO, day 0
[10] = EDTA-plasma sample PL467s, 0% DMSO, day 3
[11] = EDTA-plasma sample PL467s, 5% DMSO, day 0
[12] = EDTA-plasma sample PL467s, 5% DMSO, day 3
[13] = EDTA-plasma sample PL471s, 0% DMSO, day 0
[14] = EDTA-plasma sample PL471s, 0% DMSO, day 3
[15] = EDTA-plasma sample PL471s, 5% DMSO, day 0
[16] = EDTA-plasma sample PL471s, 5% DMSO, day 3
[17] = EDTA-plasma sample PL472s, 0% DMSO, day 0
[18] = EDTA-plasma sample PL472s, 0% DMSO, day 3
[19] = EDTA-plasma sample PL472s, 5% DMSO, day 0
[20] = EDTA-plasma sample PL472s, 5% DMSO, day 3
[21] = EDTA-plasma sample PL473s, 0% DMSO, day 0
[22] = EDTA-plasma sample PL473s, 0% DMSO, day 3
[23] = EDTA-plasma sample PL473s, 5% DMSO, day 0
[24] = EDTA-plasma sample PL473s, 5% DMSO, day 3
[25] = Sample 1, three days at room temperature
[26] = Sample 1 parall., three days at room temperature
[27] = Sample 2, three days at room temperature
[28] = Sample 2 parall., three days at room temperature

## pepsinogen I [PGI]
[1]; serum sample PL411s, 0% DMSO
  PGI concentration: 283.6 µg/L
[1]; serum sample PL411s, 5% DMSO
  PGI concentration: 296.0 µg/L
[1]; serum sample PL420b, 0% DMSO
  PGI concentration: 75.5 µg/L
[1]; serum sample PL420b, 5% DMSO
  PGI concentration: 79.3 µg/L
[1]; serum sample PL426s, 0% DMSO
  PGI concentration: 49.7 µg/L
[1]; serum sample PL426s, 5% DMSO
  PGI concentration: 50.6 µg/L
[1]; serum sample PL438s, 0% DMSO
  PGI concentration: 158.6 µg/L
[1]; serum sample PL438s, 5% DMSO
  PGI concentration: 156.0 µg/L
[1]; serum sample PL439s, 0% DMSO
  PGI concentration: 67.6 µg/L
[1]; serum sample PL439s, 5% DMSO
  PGI concentration: 68.5 µg/L
[1]; serum sample PL447b, 0% DMSO
  PGI concentration: 6.0 µg/L
[1]; serum sample PL447b, 5% DMSO
  PGI concentration: 6.0 µg/L
[1]; serum sample PL454s, 0% DMSO
  PGI concentration: 100.6 µg/L
[1]; serum sample PL454s, 5% DMSO
  PGI concentration: 102.3 µg/L
[1]; serum sample PL455b, 0% DMSO
  PGI concentration: 79.2 µg/L
[1]; serum sample PL455b, 5% DMSO
  PGI concentration: 81.5 µg/L
[1]; serum sample PL457b, 0% DMSO
  PGI concentration: 101.1 µg/L
[1]; serum sample PL457b, 5% DMSO
  PGI concentration: 106.9 µg/L
[1]; serum sample PL458s, 0% DMSO
  PGI concentration: 77.1 µg/L
[1]; serum sample PL458s, 5% DMSO
  PGI concentration: 80.1 µg/L
[2]; [5]
  PGI concentration: 58.8 µg/L
[2]; [6]
  PGI concentration: 76.9 µg/L
[2]; [7]
  PGI concentration: 60.5 µg/L
[2]; [8]
  PGI concentration: 77.4 µg/L
[2]; [9]
  PGI concentration: 73.3 µg/L
[2]; [10]
  PGI concentration: 94.9 µg/L
[2]; [11]
  PGI concentration: 76.8 µg/L
[2]; [12]
  PGI concentration: 98.8 µg/L
[2]; [13]
  PGI concentration: 60.6 µg/L
[2]; [14]
  PGI concentration: 85.5 µg/L
[2]; [15]
  PGI concentration: 67.6 µg/L
[2]; [16]
  PGI concentration: 84.3 µg/L
[2]; [17]
  PGI concentration: 110.3 µg/L
[2]; [18]
  PGI concentration: 134.8 µg/L
[2]; [19]
  PGI concentration: 109.4 µg/L
[2]; [20]
  PGI concentration: 135.6 µg/L
[2]; [21]
  PGI concentration: 94.9 µg/L
[2]; [22]
  PGI concentration: 115.4 µg/L
[2]; [23]
  PGI concentration: 94.7 µg/L
[2]; [24]
  PGI concentration: 102.1 µg/L
[2]
  effect of adding DMSO on the activity: essentially no effect
[3]
  time for which activity is retained: many days

## collagen I aminoterminal telopeptide [U-INTP]
[4]; Sample 1, immediately
  U-INTP test result, Immed.: 200
[4]; [25]
  U-INTP test result, 3 days no stabilizer: 189
  U-INTP, 3 days no stabilizer, in % of immed.-sample: 94.5%
  U-INTP test result, 3 days + stabilizer: 202
  U-INTP, 3 days + stabilizer, in % of immed.-sample: 101.0%
[4]; Sample 1 parall., immediately
  U-INTP test result, Immed.: 199
[4]; [26]
  U-INTP test result, 3 days no stabilizer: 187
  U-INTP, 3 days no stabilizer, in % of immed.-sample: 94.0%
  U-INTP test result, 3 days + stabilizer: 209
  U-INTP, 3 days + stabilizer, in % of immed.-sample: 105.0%
[4]; Sample 2, immediately
  U-INTP test result, Immed.: 113
[4]; [27]
  U-INTP test result, 3 days no stabilizer: 115
  U-INTP, 3 days no stabilizer, in % of immed.-sample: 101.8%
  U-INTP test result, 3 days + stabilizer: 144
  U-INTP, 3 days + stabilizer, in % of immed.-sample: 127.4%
[4]; Sample 2 parall., immediately
  U-INTP test result, Immed.: 118
[4]; [28]
  U-INTP test result, 3 days no stabilizer: 114
  U-INTP, 3 days no stabilizer, in % of immed.-sample: 96.6%
  U-INTP test result, 3 days + stabilizer: 136
  U-INTP, 3 days + stabilizer, in % of immed.-sample: 115.3%

B1: pepsinogen II (protein, UniProt P20142 17-388, looked up)
pro-form: AVVKVPLKKFKSIRETMKEKGLLGEFLRTHKYDPAWKYRFGDLSVTYEPMAYMDAAYFGEISIGTPPQNFLVLFDTGSSNLWVPSVYCQSQACTSHSRFNPSESSTYSTNGQTFSLQYGSGSLTGFFGYDTLTVQSIQVPNQEFGLSENEPGTNFVYAQFDGIMGLAYPALSVDEATTAMQGMVQEGALTSPVFSVYLSNQQGSSGGAVVFGGVDSSLYTGQIYWAPVTQELYWQIGIEEFLIGGQASGWCSEGCQAIVDTGTSLLTVPQQYMSALLQATGAQEDEYGQFLVNCNSIQNLPSLTFIINGVEFPLPPSSYILSNNGYCTVGVEPTYLSSQNGQPLWILGDVFLRSYYSVYDLGNNRVGFATAA
modifications: pro-form
notes: analyte determined from serum or plasma sample
[1]; serum sample PL411s, 0% DMSO
  PGII concentration: 32.8 µg/L
[1]; serum sample PL411s, 5% DMSO
  PGII concentration: 33.6 µg/L
[1]; serum sample PL420b, 0% DMSO
  PGII concentration: 6.3 µg/L
[1]; serum sample PL420b, 5% DMSO
  PGII concentration: 5.7 µg/L
[1]; serum sample PL426s, 0% DMSO
  PGII concentration: 3.5 µg/L
[1]; serum sample PL426s, 5% DMSO
  PGII concentration: 3.1 µg/L
[1]; serum sample PL438s, 0% DMSO
  PGII concentration: 13.6 µg/L
[1]; serum sample PL438s, 5% DMSO
  PGII concentration: 12.8 µg/L
[1]; serum sample PL439s, 0% DMSO
  PGII concentration: 5.7 µg/L
[1]; serum sample PL439s, 5% DMSO
  PGII concentration: 5.2 µg/L
[1]; serum sample PL447b, 0% DMSO
  PGII concentration: 4.9 µg/L
[1]; serum sample PL447b, 5% DMSO
  PGII concentration: 4.6 µg/L
[1]; serum sample PL454s, 0% DMSO
  PGII concentration: 7.7 µg/L
[1]; serum sample PL454s, 5% DMSO
  PGII concentration: 7.3 µg/L
[1]; serum sample PL455b, 0% DMSO
  PGII concentration: 7.3 µg/L
[1]; serum sample PL455b, 5% DMSO
  PGII concentration: 7.1 µg/L
[1]; serum sample PL457b, 0% DMSO
  PGII concentration: 7.1 µg/L
[1]; serum sample PL457b, 5% DMSO
  PGII concentration: 6 µg/L
[1]; serum sample PL458s, 0% DMSO
  PGII concentration: 6.7 µg/L
[1]; serum sample PL458s, 5% DMSO
  PGII concentration: 5.8 µg/L
[2]; [5]
  PGII concentration: 6.8 µg/L
[2]; [6]
  PGII concentration: 8.3 µg/L
[2]; [7]
  PGII concentration: 6.6 µg/L
[2]; [8]
  PGII concentration: 7.7 µg/L
[2]; [9]
  PGII concentration: 5 µg/L
[2]; [10]
  PGII concentration: 6.4 µg/L
[2]; [11]
  PGII concentration: 4.9 µg/L
[2]; [12]
  PGII concentration: 6.2 µg/L
[2]; [13]
  PGII concentration: 4.9 µg/L
[2]; [14]
  PGII concentration: 5.8 µg/L
[2]; [15]
  PGII concentration: 4.8 µg/L
[2]; [16]
  PGII concentration: 5.3 µg/L
[2]; [17]
  PGII concentration: 5.7 µg/L
[2]; [18]
  PGII concentration: 7.3 µg/L
[2]; [19]
  PGII concentration: 5.7 µg/L
[2]; [20]
  PGII concentration: 6.9 µg/L
[2]; [21]
  PGII concentration: 6.4 µg/L
[2]; [22]
  PGII concentration: 8.5 µg/L
[2]; [23]
  PGII concentration: 6.4 µg/L
[2]; [24]
  PGII concentration: 7.9 µg/L
[2]
  effect of adding DMSO on the activity: essentially no effect
[3]
  time for which activity is retained: many days

— patent US20070243558A1, “Peptide Stabilization” (priority 2004, published 2007)
